Test [1] concerns the target SUMO-tagged WIPI2b^Δ (residues 13 to 362 without 265 to 297) (human). As to the kind of experiment: SEC-MALS.
Test [2] shares this target. As to the kind of experiment: ITC.

Chain of Trx-tagged ATG16L1(78 to 247) (Q676U5 78-247): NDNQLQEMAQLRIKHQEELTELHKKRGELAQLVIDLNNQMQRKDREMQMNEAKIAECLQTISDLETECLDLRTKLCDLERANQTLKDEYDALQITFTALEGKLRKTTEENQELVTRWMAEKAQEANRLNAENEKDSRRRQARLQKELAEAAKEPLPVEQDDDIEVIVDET
Chain of Trx-tagged ATG16L1(207 to 247) (Q676U5 207-247): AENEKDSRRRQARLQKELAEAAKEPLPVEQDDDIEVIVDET
Chain of ATG16L1(124 to 247) (Q676U5 124-247): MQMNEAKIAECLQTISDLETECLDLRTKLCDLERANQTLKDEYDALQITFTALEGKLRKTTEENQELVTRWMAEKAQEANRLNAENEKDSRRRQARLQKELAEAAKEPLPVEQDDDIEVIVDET
Chain of Trx-tagged ATG16L1(78 to 206) (Q676U5 78-206): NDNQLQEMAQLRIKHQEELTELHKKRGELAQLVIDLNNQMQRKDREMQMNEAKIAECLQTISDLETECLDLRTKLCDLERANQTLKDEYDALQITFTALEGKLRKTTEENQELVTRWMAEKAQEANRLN

Substance “ATG16L1(124 to 247) (from UniProt Q676U5 124-247) (domain or fragment)” returned a stoichiometry N (ATG16L1 chains per WIPI2b^Δ (2:2)) in test [1] of 1. “Trx-tagged ATG16L1(78 to 206) (from UniProt Q676U5 78-206) (domain or fragment)” yielded a Kd in test [2] of 6.88 µM. Take “Trx-tagged ATG16L1(78 to 247) (from UniProt Q676U5 78-247) (domain or fragment)”: in test [2], the KD of the WBS1 site (two-site fit) was found to be 2.88 µM and the KD of the WBS2 site (two-site fit) turned out to be 0.41 µM. In test [2], “Trx-tagged ATG16L1(207 to 247) (from UniProt Q676U5 207-247) (domain or fragment)” yielded a Kd of 3.93 µM.

Values taken from article PMC9977175.
